Data on 1 substance can be found in patent US20090117107A1.

The assay concerns the target rRANKL (Cambrex) (UniProt O14788). Nature of the assay: cell-based or functional assay.

Where only a bound is given, the exact number is not on record here.

Sequence of UniProt O14788 (O14788 140-317 limits assumed): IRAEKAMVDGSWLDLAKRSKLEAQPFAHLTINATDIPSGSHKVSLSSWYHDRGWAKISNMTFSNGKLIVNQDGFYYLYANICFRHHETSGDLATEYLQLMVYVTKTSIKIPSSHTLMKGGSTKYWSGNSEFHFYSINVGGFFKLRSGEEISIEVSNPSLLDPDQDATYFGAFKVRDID

Take “Recombinant OPG (R&D cat185-05-025) (from UniProt O00300 22-401) (receptor)”: the rRANKL-induced OC differentiation in OCP-RASF coculture, αvβ3 integrin cELISA luminescent readout (ng/mL rRANKL inhibited by 22 ng/mL rOPG) was under 7.5 and the rRANKL-induced OC differentiation in OCP-RASF coculture, αvβ3 integrin cELISA luminescent readout (ng/mL rRANKL inhibited by 66 ng/mL rOPG) is under 15.
